{"source": "patent US20210032353A1", "about": "(NATIONAL HEALTH RESEARCH INSTITUTES, published 2021)", "binders": {"B1": {"name": "R2C7-1 monoclonal antibody (antibody, V domains shown)", "VH": "EVQLQQSGPELVKPGASVKISCKASGYSFTDYFINWVIQRHGKSLEWVGRINPYNGGSFYNQKFKDKATLTVDKSSNIAHMELRSLASEDSAIYYCARSGGNGYDYWGQGTTLTVSS", "VL": "DIVMTQAAPSVPVIPGESVSISCRSSKSLLHSNGNTYLYWFLQRPGQSPQLLIYRMSNLASGVPDRFSGSGSGTAFTLRISRVEAEDVGVYYCMQHLEYPYTFGGGTKVEIK", "notes": "Mouse monoclonal antibody purified from hybridoma supernatant; An IgG2a isotype antibody served as its control; also called R2C7-1 mAb"}}, "molecular_target": "T1, R2-IgD4-5 (human, UniProt P35968)", "T1 construct": "recombinant fragment; also called immunoglobin-like domains 4-5 of VEGFR2", "T1 sequence (P35968 328-548 limits assumed)": "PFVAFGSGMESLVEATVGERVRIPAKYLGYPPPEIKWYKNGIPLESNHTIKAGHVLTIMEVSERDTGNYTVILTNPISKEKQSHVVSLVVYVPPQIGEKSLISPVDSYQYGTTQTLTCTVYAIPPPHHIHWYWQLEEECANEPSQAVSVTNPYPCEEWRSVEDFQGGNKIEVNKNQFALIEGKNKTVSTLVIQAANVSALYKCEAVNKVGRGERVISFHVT", "assay": "cell-based competitive ELISA: R2C7-1 absorbed with the soluble domains, then bound to fixed 293T/VEGFR2 cells, OD405", "description": "The optimal concentration of R2C7-1 and R2C9-11 mAbs (200 μg/mL and 50 μg/mL, respectively) were absorbed with the designated doses of the individual immunoglobin-like domains of VEGFR2 (R2-IgDs) antigens. After, the fixed 293T/VEGFR2 cells were incubated with the absorbed antibodies at 37° C. for 30 min. The bound antibodies were probed with goat-anti-mouse IgG conjugated with HRP, visualized by addition of ABTS, and measured at OD₄₀₅ using the SpectraMax microplate reader. Data are represented as means±S.D. of the percentage of isotype control (CTL) in triplicate. The potential epitope locations of R2C7-1 (upper) and R2C9-11 (lower) on the VEGFR2 antigen are indicated by black lines spanning IgD6 and IgD7 in the schematics.\nTo define the recognition epitopes of R2C7-1 and R2C9-11 antibodies, cell-based competitive enzyme-linked immunosorbent assay (ELISA) was performed. HEK293T/VEGFR2 transfectants (5 X×10⁴/well) were coated and fixed on 96-well plates. The optimal concentrations, the highest concentration of the log phase, of R2C7-1 and R2C9-11 antibodies for binding to the cells, were determined using a standard ELISA procedure (data not shown). […]\nThe epitopes of R2C7-1 and R2C9-11 anti-VEGFR2 antibodies were determined by cell-based competitive ELISA. […]", "data": [{"binder": "B1", "values": [{"measurement": "binding result", "result": "no binding (tested: 20 (unit not printed on the sheet))"}]}]}
